Measured values: publication PMC3906126 (2013)

Target: T1, ErbB4 PY3 motif (Homo sapiens, UniProt Q15303)
T1 chain: KPGTVLPPPPYRHRNTVV

- Kd: ~100 µM
B1: WWOX WW1 (peptide)
chain: DSEDELPPGWEERTTKDGWVYYANHTEEKTQWEHPKTGKR
